The star is where a group is joined. Biotin = O=C1N[C@H]2[C@H](CS[C@H]2CCCCC(=O)*)N1
Target: T1, human RORγt ligand binding domain (residues 265 to 518) with an N-terminal His6-tag (human, UniProt P51449-1 265-518)
T1 sequence (looked up): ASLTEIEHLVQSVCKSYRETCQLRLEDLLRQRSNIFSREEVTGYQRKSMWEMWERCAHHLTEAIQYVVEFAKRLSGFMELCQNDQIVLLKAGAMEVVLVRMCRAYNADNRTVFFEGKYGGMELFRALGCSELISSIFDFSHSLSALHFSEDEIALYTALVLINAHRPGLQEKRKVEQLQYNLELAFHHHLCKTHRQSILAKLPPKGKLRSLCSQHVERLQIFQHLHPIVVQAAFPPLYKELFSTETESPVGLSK
Assay: AlphaScreen or HTRF

B1: N-terminal biotinylated SRC-1 box2 peptide (peptide)
peptide: Biotin-PSSHSSLTARHKILHRLLQEGSPSD-NH2
SMILES: CC[C@H](C)[C@H](NC(=O)[C@H](CCCCN)NC(=O)[C@H](Cc1c[nH]cn1)NC(=O)[C@H](CCCNC(=N)N)NC(=O)[C@H](C)NC(=O)[C@@H](NC(=O)[C@H](CC(C)C)NC(=O)[C@H](CO)NC(=O)[C@H](CO)NC(=O)[C@H](Cc1c[nH]cn1)NC(=O)[C@H](CO)NC(=O)[C@H](CO)NC(=O)[C@@H]1CCCN1C(=O)CCCC[C@@H]1SC[C@@H]2NC(=O)N[C@@H]21)[C@@H](C)O)C(=O)N[C@@H](CC(C)C)C(=O)N[C@@H](Cc1c[nH]cn1)C(=O)N[C@@H](CCCNC(=N)N)C(=O)N[C@@H](CC(C)C)C(=O)N[C@@H](CC(C)C)C(=O)N[C@@H](CCC(N)=O)C(=O)N[C@@H](CCC(=O)O)C(=O)NCC(=O)N[C@@H](CO)C(=O)N1CCC[C@H]1C(=O)N[C@@H](CO)C(=O)N[C@@H](CC(=O)O)C(N)=O
B1: binds.
